Laboratory results reported in patent EP2814500B1 (Ecole Polytechnique Fédérale de Lausanne (EPFL), dated 2020).

B1: ERY1 peptide (H2N-WMVLPWLPGTLDGGSGCRG-CONH2) functionalized with biotin and a photoactivatable crosslinker (peptide)
peptide: H-WMVLPWLPGTLDGGSGCRG-NH2
modifications: also: conjugated to Mts-Atf-biotin, site not given here
notes: Synthetic peptide: the ERY1 12-mer followed by a GGSG linker, Cys and Arg-Gly; also called biotinylated soluble peptide; peptide-biotin complex
B2: mismatch peptide (H2N-PLLTVGMDLWPWGGSGCRG-CONH2) conjugated to Mts-Atf-biotin (peptide)
peptide: H-PLLTVGMDLWPWGGSGCRG-NH2
modifications: not fully specified; also: conjugated to Mts-Atf-biotin, site not given here
notes: Control peptide with the same residues as ERY1 in scrambled order

Experiments:
[1] = target: T1, mouse glycophorin-A (GYPA) on the mouse erythrocyte surface (mouse, UniProt P14220 1-168); test: photo-crosslinking of biotinylated peptide on whole mouse erythrocytes, streptavidin bead purification, streptavidin and anti-GYPA Western blots
[2] = target: T1, mouse glycophorin-A (GYPA) on the mouse …; test: photo-crosslinking of biotinylated peptide on whole mouse erythrocytes, streptavidin Western blot

Binder	binding result [1]	binding result [2]
B1	binds	–
B2	–	no binding
